In US20020137087, “2'-fluoropyrimidine anti-calf intestinal phosphatase nucleic acid ligands” (published 2002):

How the values were obtained:
[1] = target: T1, Calf intestinal alkaline phosphatase (CIP) (UniProt P19111 P19111:20-506); test: streptavidin plate chemiluminescence assay, SHMCK+ buffer, 37 C; conditions: tags: Boehringer Mannheim (Indianapolis, Ind.), 10 mg/ml; chain copies: 2
Description: (§1) The affinity of the initial random library and round 8 affinity enriched pool of Example 1 was performed by a plate-based assay using RNA-transcripts biotinylated on the 5′-terminus. Briefly, opaque white 96-well Lumino plates were coated with streptavidin (10 to 20 μg/well). Biotinylated RNA obtained either from the round 8 pool or the random library were added separately to individual wells of a 96-well microtiter plate (approximately 30 fMols RNA per well). After incubating for 1 hour at room temperature, wells were washed three times with […] of SHMCK+buffer. Varying concentrations of CIP, in SHMCK+buffer, were added to the wells and allowed to incubate for 1 hour at 37° C. Wells were washed four times with 200 μl SHMCK+buffer followed by the addition of a 100 μl solution consisting of 0.1 M diethanolamine pH 10, 10% volume/volume Sapphire enhancer solution (Tropix Inc., Bedford, Mass.), […] CSPD (Tropix, Inc.), 1 mM MgCl₂, and 0.02% sodium azide. After a 30 minute incubation, chemiluminescence was measured using a Berthold (Nashua, N.H.) LB 96P luminometer. Luminescence levels were integrated over one second and data were fit to a sigmoidal dose-response curve (variable slope), Y=Bottom+[(Top−Bottom)/1+10^{(Log EC50-X)(Hillslope)}] using GraphPad Prism version 2.01 (GraphPad Software; San Diego, Calif.). Each replicate was considered individually and convergence was obtained when two consecutive iterations varied the sum of squares (relative distance of the points from the curve, 1/Y²) by less than 0.01%.

[2] = target: T1, Calf intestinal alkaline phosphatase …; test: streptavidin plate chemiluminescence assay, SHMCK+ buffer pH 7.35, 1 mM CaCl2, 1 mM MgCl2, 37 C; conditions: tags: Boehringer Mannheim (Indianapolis, Ind.), 10 mg/ml; chain copies: 2
Description: as §1, with “Each replicate was considered individually and convergence was obtained when two consecutive iterations varied the sum of squares (relative distance of the points from the curve, 1/Y²) by less than 0.01%.” left out

T1 sequence (P19111 20-506, one chain of several): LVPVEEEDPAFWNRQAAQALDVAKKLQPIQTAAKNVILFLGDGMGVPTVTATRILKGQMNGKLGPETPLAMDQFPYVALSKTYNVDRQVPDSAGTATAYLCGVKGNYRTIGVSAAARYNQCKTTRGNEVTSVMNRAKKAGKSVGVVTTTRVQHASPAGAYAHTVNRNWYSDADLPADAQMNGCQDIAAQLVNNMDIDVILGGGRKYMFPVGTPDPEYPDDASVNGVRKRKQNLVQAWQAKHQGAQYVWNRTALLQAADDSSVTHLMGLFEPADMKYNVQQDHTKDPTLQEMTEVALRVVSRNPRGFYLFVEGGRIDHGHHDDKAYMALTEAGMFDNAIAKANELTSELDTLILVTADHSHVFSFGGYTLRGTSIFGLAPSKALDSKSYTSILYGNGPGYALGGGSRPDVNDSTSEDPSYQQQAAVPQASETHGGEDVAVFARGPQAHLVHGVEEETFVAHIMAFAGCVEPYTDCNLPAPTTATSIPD

| Binder | Kd [1] [nM] | Kd [2] [nM] |
| --- | --- | --- |
| DD-172-2-17 (group A) (ssRNA, all pyrimidines 2'-F) RNA: GGGAGACAAGAAUAACGCUCAAACACAAAACAAAAUAACUUGGCCUCGGUGCUCUACGCAAUUCGACAGGAGGCUCACAACAGGC | 7.2 | – |
| DD-172-2-4 (group B) (ssRNA, all pyrimidines 2'-F) RNA: GGGAGACAAGAAUAAACGCUCAACGCCAGGCCCUUAUCAAGCGCGGAACGCACGACCCGUCUUUCGACAGGAGGCUCACAACAGGC | – | 0.13 |
| DD-172-2-20 (group B) (ssRNA, all pyrimidines 2'-F) RNA: GGGAGACAAGAAUAAACGCUCAACGCCAGGCCCUUAUCAAGCGCGGAACGCAUGACCCGUCUUUCGACAGGAGGCUCACAACAGGC | 0.26 | – |
| DD-172-2-9 (group A) (ssRNA, all pyrimidines 2'-F) RNA: GGGAGACAAGAAUAAACGCUCAACACAAAACAAAAUAACCUUAGCCUCGGUGCUCUACGCAAUUCGACAGGAGGCUCACAACAGGC | 7.8 | – |
